{"source": "patent US20200377573", "proteins": {"B1": {"name": "Human matriptase (protein)", "chain": "VVGGTDADEGEWPWQVSLHALGQGHICGASLISPNWLVSAAHCYIDDRGFRYSDPTQWTAFLGLHDQSQRSAPGVQERRLKRIISHPFFNDFTFDYDIALLELEKPAEYSSMVRPICLPDASHVFPAGKAIWVTGWGHTQYGGTGALILQKGEIRVINQTTCENLLPQQITPRMMCVGFLSGGVDSCQGDSGGPLSSVEADGRIFQAGVVSWGDGCAQRNKPGVYTRLPLFRDWIKENTGV"}, "B2": {"name": "Human plasmin (protein)", "chain": "KVYLSECKTGNGKNYRGTMSKTKNGITCQKWSSTSPHRPRFSPATHPSEGLEENYCRNPDNDPQGPWCYTTDPEKRYDYCDILECEEECMHCSGENYDGKISKTMSGLECQAWDSQSPHAHGYIPSKFPNKNLKKNYCRNPDRELRPWCFTTDPNKRWELCDIPRCTTPPPSSGPTYQCLKGTGENYRGNVAVTVSGHTCQHWSAQTPHTHNRTPENFPCKNLDENYCRNPDGKRAPWCHTTNSQVRWEYCKIPSCDSSPVSTEQLAPTAPPELTPVVQDCYHGDGQSYRGTSSTTTTGKKCQSWSSMTPHRHQKTPENYPNAGLTMNYCRNPDADKGPWCFTTDPSVRWEYCNLKKCSGTEASVVAPPPVVLLPDVETPSEEDCMFGNGKGYRGKRATTVTGTPCQDWAAQEPHRHSIFTPETNPRAGLEKNYCRNPDGDVGGPWCYTTNPRKLYDYCDVPQCAAPSFDCGKPQVEPKKCPGRVVGGCVAHPHSWPWQVSLRTRFGMHFCGGTLISPEWVLTAAHCLEKSPRPSSYKVILGAHQEVNLEPHVQEIEVSRLFLEPTRKDIALLKLSSPAVITDKVIPACLPSPNYVVADRTECFITGWGETQGTFGAGLLKEAQLPVIENKVCNRYEFLNGRVQSTELCAGHLAGGTDSCQGDSGGPLVCFEKDKYILQGVTSWGLGCARPNKPGVYVRVSRFVTWIEGVMRNN"}, "B3": {"name": "Human chymase (protein)", "chain": "IIGGTECKPHSRPYMAYLEIVTSNGPSKFCGGFLIRRNFVLTAAHCAGRSITVTLGAHNITEEEDTWQKLEVIKQFRHPKYNTSTLHHDIMLLKLKEKASLTLAVGTLPFPSQFNFVPPGRMCRVAGWGRTGVLKPGSDTLQEVKLRLMDPQACSHFRDFDHNLQLCVGNPRKTKSAFKGDSGGPLLCAGVAQGIVSYGRSDAKPPAVFTRISHYRPWINQILQAN"}, "B4": {"name": "Human tPA (protein)", "chain": "SYQVICRDEKTQMIYQQHQSWLRPVLRSNRVEYCWCNSGRAQCHSVPVKSCSEPRCFNGGTCQQALYFSDFVCQCPEGFAGKCCEIDTRATCYEDQGISYRGTWSTAESGAECTNWNSSALAQKPYSGRRPDAIRLGLGNHNYCRNPDRDSKPWCYVFKAGKYSSEFCSTPACSEGNSDCYFGNGSAYRGTHSLTESGASCLPWNSMILIGKVYTAQNPSAQALGLGKHNYCRNPDGDAKPWCHVLKNRRLTWEYCDVPSCSTCGLRQYSQPQFRIKGGLFADIASHPWQAAIFAKHRRSPGERFLCGGILISSCWILSAAHCFQERFPPHHLTVILGRTYRVVPGEEEQKFEVEKYIVHKEFDDDTYDNDIALLQLKSDSSRCAQESSVVRTVCLPPADLQLPDWTECELSGYGKHEALSPFYSERLKEAHVRLYPSSRCTSQHLLNRTVTDNMLCAGDTRSGGPQANLHDACQGDSGGPLVCLNDGRMTLVGIISWGLGCGQKDVPGVYTKVTNYLDWIRDNMRP"}, "B5": {"name": "Human HTRA2 (protein)", "chain": "AVPSPPPASPRSQYNFIADVVEKTAPAVVYIEILDRHPFLGREVPISNGSGFVVAADGLIVTNAHVVADRRRVRVRLLSGDTYEAVVTAVDPVADIATLRIQTKEPLPTLPLGRSADVRQGEFVVAMGSPFALQNTITSGIVSSAQRPARDLGLPQTNVEYIQTDAAIDFGNSGGPLVNLDGEVIGVNTMKVTAGISFAIPSDRLREFLHRGEKKNSSSGISGSQRRYIGVMMLTLSPSILAELQLREPSFPDVQHGVLIHKVILGSPAHRAGLRPGDVILAIGEQMVQNAEDVYEAVRTQSQLAVQIRRGRETLTLYVTPEVTE"}}, "data": [{"molecular_target": "HTRA1-inhibiting peptides (Example 3-2 and 3-3, members not named)", "values": [{"protein": "B1", "protease activity (decomposition of a peptide substrate)": "did not suppress the protease activity of any of the proteases at a final inhibitor concentration of 1 micro M"}, {"protein": "B2", "protease activity (decomposition of a peptide substrate)": "did not suppress the protease activity of any of the proteases at a final inhibitor concentration of 1 micro M"}, {"protein": "B3", "protease activity (decomposition of a peptide substrate)": "did not suppress the protease activity of any of the proteases at a final inhibitor concentration of 1 micro M"}, {"protein": "B4", "protease activity (decomposition of a peptide substrate)": "did not suppress the protease activity of any of the proteases at a final inhibitor concentration of 1 micro M"}, {"protein": "B5", "protease activity (decomposition of a peptide substrate)": "did not suppress the protease activity of any of the proteases at a final inhibitor concentration of 1 micro M"}]}]}
